Assay results: patent publication US20160250313A1 (GlaxoSmithKline, published 2016)

Target: T1, Vitronectin from human plasma, SIGMA-ALDRICH (human, UniProt P04004 20-478)
T1 construct: mature
Experiment: ELISA, fusion protein coated at 10 ug/ml, vitronectin from 10 ug/ml in two-fold dilutions, detected with peroxidase sheep anti-human vitronectin

T1 sequence (P04004 20-478): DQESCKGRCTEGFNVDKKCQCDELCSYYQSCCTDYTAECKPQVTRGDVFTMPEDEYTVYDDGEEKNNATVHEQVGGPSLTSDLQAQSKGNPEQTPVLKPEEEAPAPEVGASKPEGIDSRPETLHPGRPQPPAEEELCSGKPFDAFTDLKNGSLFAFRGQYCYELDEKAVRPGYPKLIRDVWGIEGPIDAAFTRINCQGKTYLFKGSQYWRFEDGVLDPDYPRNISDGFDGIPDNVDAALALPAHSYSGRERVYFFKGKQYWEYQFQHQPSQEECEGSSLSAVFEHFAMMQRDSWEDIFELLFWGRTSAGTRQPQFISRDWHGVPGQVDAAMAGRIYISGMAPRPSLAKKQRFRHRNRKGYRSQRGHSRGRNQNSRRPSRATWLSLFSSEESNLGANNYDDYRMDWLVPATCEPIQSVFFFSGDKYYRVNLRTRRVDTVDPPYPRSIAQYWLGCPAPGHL

B1: purified LVL317 PE-PilA fusion protein (other)
chain: QIQKAEQNDVKLAPPTDVRSGYIRLVKNVNYYIDSESIWVDNQEPQIVHFDAVVNLDKGLYVYPEPKRYARSVRQYKILNCANYHLTQVRTDFYDEFWGQGLRAAPKKQKKHTLSLTPDTTLYNAAQIICANYGEAFSVDKKGGTKKAAVSELLQASAPYKADVELCVYSTNETTNCTGGKNGIAADITTAKGYVKSVTTSNGAITVKGDGTLANMEYILQATGNAATGVTWTTTCKGTDASLFPANFCGSVTQ
notes: Coated on microtiter plates at 10 ug/ml; also called PE-PilA fusion non His-tagged protein
binding result: binds
